Read-outs that look alike come from different tables or passages of the source.
Columns and labels:
SemiSWEET [1] = assay: native MS
SemiSWEET [2] = assay: native MS; remark: listed apart in the source

stoichiometry N (SemiSWEET [1]): 2
stoichiometry N (SemiSWEET [2]): 2
Substance: SemiSWEET (natural protein)

Source: PMC10932607
